The target of test [1] is D25. The conditions noted are these: cells fixed with 4% (vol/vol) paraformaldehyde 16 h after transfection; read off a plot.
The target of another test is palivizumab. The conditions noted are these: cells fixed with 4% (vol/vol) paraformaldehyde 16 h after transfection; read off a plot.
For test [2], the target named is mouse-human chimeric mAb 101F. In words: ELISA. A general note: ELISA stands for enzyme-linked immunosorbent assay.
Test [3] has as its target D25. Nature of the test: ELISA.

For “wild-type RSV F (RSV-A2) expressed on HEK-293T cells I432A”, the percent of parent with D25 [1] came to 240 % WT; with palivizumab, 260 % WT. On to post-fusion RSV A2 F protein R429A, for which the EC50 in test [2] is 0.026 µg/mL. Turning to “wild-type RSV F (RSV-A2) expressed on HEK-293T cells G430A”, the percent of parent with D25 [1] worked out at 310 % WT; in the test with palivizumab, 400 % WT. Take “wild-type RSV F (RSV-A2) expressed on HEK-293T cells R429A”: the values for the percent of parent in the test with D25 [1] and with palivizumab were 390 % WT and 310 % WT, respectively. Substance post-fusion RSV A2 F protein I432A registered an EC50 in test [2] of 0.066 µg/mL. pre-fusion RSV A2 F SC-TM protein R429A: in the test with D25 [3], the EC50 amounted to 0.023 µg/mL.

pre-fusion RSV A2 F SC-TM protein G430A displayed an EC50 in test [2] of 0.97 µg/mL. Same read-out and setting: then post-fusion RSV A2 F protein G430A, with 0.035 µg/mL.

In general, EC50 refers to the midpoint of the concentration-response curve. A higher EC50 goes with a need for much substance.

For the origin of these results see publication PMC5823459.
